Experimental findings from patent US20100120675A1 (CONSEJO SUPERIOR DE INVESTIGACIONES CIENTIFICAS, published 2010) are described below.

Test [1] has as its target T1, UDG enzyme of B. subtilis (Bacillus subtilis, UniProt P39615 1-225).
T1 construct: Endogenous enzyme of the B. subtilis 110NA extract, identified by peptide mass fingerprinting (MASCOT); also called UDG of B. subtilis; protein D
T1 sequence: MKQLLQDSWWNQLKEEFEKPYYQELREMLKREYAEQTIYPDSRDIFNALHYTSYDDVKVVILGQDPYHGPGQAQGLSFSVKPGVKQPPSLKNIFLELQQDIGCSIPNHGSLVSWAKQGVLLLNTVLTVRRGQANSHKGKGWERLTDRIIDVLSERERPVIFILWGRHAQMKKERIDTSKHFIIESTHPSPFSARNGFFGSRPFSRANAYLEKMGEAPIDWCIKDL
The experiment in a line: affinity chromatography of B. subtilis 110NA[pPR53.p56FLAG] lysate on anti-FLAG M2 column, elution with FLAG peptide, SDS gel, peptide mass fingerprinting.
Method: In order to analyse whether the UDG enzyme is a cellular target of protein p56, affinity chromatography assays were performed. […] The culture was concentrated 10-fold in TBS buffer (50 mM Tris-HCl, pH 7.5, 150 mM NaCl) and was lysed using the French press (20,000 psi). The lysate was centrifuged at 7,000 rpm and 4° C. in the Sorvall-SS.34 rotor for 10 minutes. The supernatant was loaded in an anti-FLAG M2 column (Sigma). The proteins bound to the column were eluted with the TBS buffer containing the FLAG peptide (500 μg/ml) (Sigma). […] The gel was stained with SyproRuby (Molecular Probes). As a negative control, an extract from the 110NA[pPR53] strain was used.

The target in a further test is T2, UDG enzyme of E. coli (E. coli, UniProt P12295 2-229).
T2 construct: Commercial enzyme; also called UDG of E. coli (New England Biolabs)
T2 sequence: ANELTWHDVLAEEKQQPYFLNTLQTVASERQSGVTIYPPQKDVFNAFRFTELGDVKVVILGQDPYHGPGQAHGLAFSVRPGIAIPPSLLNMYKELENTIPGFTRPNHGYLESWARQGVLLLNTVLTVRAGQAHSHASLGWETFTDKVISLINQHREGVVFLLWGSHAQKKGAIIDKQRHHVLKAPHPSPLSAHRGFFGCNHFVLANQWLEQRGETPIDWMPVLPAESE
Kind of test: native polyacrylamide gel (16%) of p56 (2 µg) incubated with E. coli UDG (0.2 µg); Western blot and peptide mass fingerprinting of the band. (In general: Immunoblotting shows a protein as a band on a membrane.)

B1: protein p56FLAG (other)
chain: MVQNDFVDSYDVTMLLQDDDGKQYYEYHKGLSLSDFEVLYGNTADEIIKLRLDKVLDYKDDDDK
notes: Produced constitutively in B. subtilis 110NA[pPR53.p56FLAG]; Captured from the cell lysate on an anti-FLAG M2 column
In the case of B1, in test [1], the binding result is on record as “binds”.

B2: protein p56 of the phi29 (φ29) bacteriophage (other)
chain: MVQNDFVDSYDVTMLLQDDDGKQYYEYHKGLSLSDFEVLYGNTADEIIKLRLDKVL
notes: Untagged, purified as in section 1.4; also called protein of the invention
As for B2, the binding result in the test with UDG enzyme of E. coli is “binds”.
